In the supplement of paper PMC10567573:
± gives the standard deviation.

Assay: protein stability index of a GFP-peptide fusion (GPS, HEK-293T) (PSI 1-6); higher = more stable
[1] = treatment: DMSO, c terminus: native
[2] = treatment: MLN4924 1 uM, 8 h, c terminus: native
[3] = treatment: DMSO, c terminus: a fixed tail appended
[4] = treatment: MLN4924 1 uM, 8 h, c terminus: a fixed tail appended
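Also: 24-mer peptide tiles fused after GFP, lentivirally expressed, FACS-sorted into six equal bins by GFP/DsRed ratio, decoded by Illumina sequencing, PSI is the read-weighted mean bin number.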

| Sequence | protein stability index [1] | protein stability index [2] | protein stability index [3] | protein stability index [4] |
| --- | --- | --- | --- | --- |
| SNFHINVEESVDGQVVSSHKREI [KRT15] | 2.91 ± 1 | 3.83 ± 1 | – | – |
| ELRRNHCFQDFKEEKPQENKTWRE [ELOA2] | – | – | 3.31 ± 0.31 | 3.47 ± 0.41 |
| GSAAGHVLVKDNGLGCKDLDLIFH [TENT5C] | – | – | 2.59 ± 0.32 | 2.84 ± 0.44 |
| LKQLKHPNLVNLIEVFRRKRKMHL [CDKL4] | – | – | 2.44 ± 0.43 | 2.58 ± 0.3 |
| ADDESETPEELEEEIPVVICAAAG [GLT8D2] | – | – | 5.582 ± 0.029 | 5.5 ± 0.35 |
| VLLMKDRETNKSRGFAFVTFESPA [RBMX] | – | – | 2.06 ± 0.47 | 2.2 ± 0.41 |
| GQKLVVPGLLGSMALSNHYRSEDL [FBXO3] | – | – | 2.92 ± 0.21 | 3.17 ± 0.35 |
| PMPLSEGKSILLFGGAAAVAILAV [BCL2L13] | – | – | 2.77 ± 0.76 | 2.75 ± 0.69 |
| QALKFLPVPSAPVIDLAESLVADN [FSD1] | – | – | 3.48 ± 0.42 | 3.77 ± 0.28 |
| GIGDMAFEGDMGAAGGDGELGSPL [PSD2] | – | – | 5.37 ± 0.25 | 5.46 ± 0.16 |
| DCLLCFPETLPESSLFSVEANSSN [C8orf76] | – | – | 3.58 ± 0.29 | 3.58 ± 0.6 |
| IELDRTIMPDGTIVTTVTTVQSRP [C2CD2L] | – | – | 2.1 ± 0.14 | 2.09 ± 0.23 |
| LVDQVTGVSRGVGFIRFDKRIEAE [ELAVL3] | – | – | 2.97 ± 0.52 | 2.88 ± 0.62 |
| PEFIKVRENLRRIATLTSEEREL [FAM107A] | 2.66 ± 0.5 | 3.35 ± 0.55 | – | – |
| ADVTLDPETAHPNLVLSEDRKSVK [TRIM39] | – | – | 5.38 ± 0.16 | 5.37 ± 0.43 |
| IADRAAHDESPGNNVVDISVPPTT [RAB11B] | – | – | 5.43 ± 0.24 | 5.21 ± 0.13 |
| TTTVTAVTAEVDLFGDAFAASPGE [SNAP91] | – | – | 4.54 ± 0.13 | 4.59 ± 0.28 |
| ESGASIEDHNENGHTPLMEAGSAG [ANKRD17] | – | – | 5.47 ± 0.25 | 5.35 ± 0.28 |
| SGLVRRLWRSRVVPDREEGGSGGG [SMAD6] | – | – | 3.91 ± 0.6 | 4.33 ± 0.36 |
| LEKDTMDNWDEKKLEEVVNKKHGE [ZC3H15] | – | – | 5.54 ± 0.095 | 5.46 ± 0.19 |
| SFNHNAHLTVHKRIHTGERPYMCK [ZNF8] | – | – | 2.76 ± 0.2 | 2.9 ± 0.22 |
| FVEKNPTIVNFPITNVDLREYLSE [USP39] | – | – | 2.73 ± 0.66 | 3.01 ± 1 |
| RQTTGLMEYCLEVIKENDPSGFLQ [TRIM9] | – | – | 3.11 ± 0.24 | 3.05 ± 0.34 |

| Sequence | protein stability index [1] | protein stability index [2] | protein stability index [3] | protein stability index [4] |
| --- | --- | --- | --- | --- |
| LVVAVAAVSCVFLAFVIVLLAHRL [PCDHGA10] | – | – | 2.9 ± 0.83 | 2.83 ± 0.15 |
| GHDKCVSWMCTRSGNMLGRHFFTS [WDFY1] | – | – | 2.35 ± 0.36 | 2.35 ± 0.18 |
| ICCWSFYGQGRKIAEVCCTSIVYA [KCTD10] | – | – | 2.98 ± 0.44 | 3.44 ± 0.54 |
| LQAQVQYQQQHEQQKKDLEILHQQ [SASS6] | – | – | 4.73 ± 0.14 | 4.93 ± 0.19 |
| ARPSSASIRDANLYVSGLPKTMSQ [ELAVL3] | – | – | 4.08 ± 0.61 | 3.81 ± 0.098 |
| MRAAALCDKHSKLFEEPEDPSNRS [PPP2R2C] | – | – | 5.14 ± 0.12 | 5.17 ± 0.12 |
| VPAAGGPAPKRGYSSEMKTEDELR [AUH] | – | – | 5.53 ± 0.68 | 5.9 ± 0.071 |
| IHPDEDISLEERRAQLPKYQRNLP [ZNF207] | – | – | 4.19 ± 0.27 | 4.46 ± 0.31 |
| SAPLQGAVPPTSSVPPVAGAPSVG [SNAP91] | – | – | 4.91 ± 0.19 | 4.99 ± 0.081 |
| ENQRENLEQPFLSVFKKGRRRVPV [PLEKHN1] | – | – | 3.31 ± 0.4 | 3.46 ± 0.18 |
| ISLINTRMLFWACSTNKPEGYRVS [FAF2] | – | – | 2.5 ± 0.61 | 2.35 ± 0.39 |
| SGSSYRDALQRYGTSHGAPPARGP [RBMY1A1] | – | – | 4.1 ± 0.22 | 4.14 ± 0.25 |
| TFPDLESEFQAALSRKVAELVHFL [MAGEA3] | – | – | 2.34 ± 0.37 | 2.45 ± 0.33 |
| VLVILISIVIFCLETLPEFRDEKD [KCNA3] | – | – | 2.54 ± 0.81 | 2.25 ± 0.88 |
| FVAENSSLHPESGQENDATSPHFS [CD69] | – | – | 3.74 ± 0.56 | 4.23 ± 0.42 |
| MEQPTSSTNGEKTKSPCESNNKKN [SPANXN3] | – | – | 5.32 ± 0.33 | 4.92 ± 0.85 |
| NEIFTQLYRTLFSVINNGHNQKVH [PDS5B] | – | – | 2.24 ± 0.47 | 2.47 ± 0.56 |
| SKSKQPAGHRRPAGGIRESKESSK [C22orf31] | – | – | 5.35 ± 0.055 | 4.91 ± 0.53 |
| MLENYSNLVSVGYQAGKPDALTKL [ZNF649] | – | – | 2.72 ± 0.2 | 2.83 ± 0.18 |
| FRLLNLKNDSLRKRYDGLKYDVKK [TSN] | – | – | 2.85 ± 0.21 | 2.94 ± 0.32 |
| RAPACSPEAAAAQLRATAGSLILP [FCHO1] | – | – | 3.12 ± 0.38 | 3.15 ± 0.34 |
| HTQVLPDVRLLPRRLPLAFRDATS [DYRK1B] | – | – | 2.84 ± 0.32 | 3.04 ± 0.22 |
| LANRLCLPHLVALTEQYTVTGLME [RHOBTB2] | – | – | 2.57 ± 0.6 | 2.43 ± 0.39 |

| Sequence | protein stability index [1] | protein stability index [2] | protein stability index [3] | protein stability index [4] |
| --- | --- | --- | --- | --- |
| SGMGGRAPVSRGRDSYGGPPRREP [RBMX] | – | – | 4.45 ± 0.28 | 4.61 ± 0.29 |
| SLGYVRSQFLKLKTSVEKANAQIQ [CD207] | – | – | 2.63 ± 0.53 | 2.81 ± 0.27 |
| IHLREDLVQDQDLEAIRKQDLVEL [ZER1] | – | – | 4.5 ± 0.096 | 4.56 ± 0.28 |
| HFSLRVQSRANGVKYPELVLEHSL [PCDHGA10] | – | – | 2.35 ± 0.29 | 2.27 ± 0.35 |
| PSLEELGFDTDGLSSAVWPGGETE [CRY1] | – | – | 5.33 ± 0.28 | 5.29 ± 0.16 |
| MLPGVGVFGTSLTARVIIPLLKDE [GFOD1] | – | – | 2.17 ± 0.19 | 2.02 ± 0.16 |
| LQLEACGMRRKSLLTRKVICKSDA [GOLPH3] | – | – | 2.95 ± 0.58 | 3.07 ± 0.43 |
| AACLYLVCRTEGTPHMLLDLSDLL [BRF1] | – | – | 3.31 ± 0.47 | 2.85 ± 0.43 |
| PQAHQESTRGAARPAQAIGTQPRA [SPACA9] | – | – | 5.08 ± 0.23 | 5.35 ± 0.18 |
| LTTFQDQLNRRGEFIQEIRRQLEA [OAS1] | – | – | 3.3 ± 0.35 | 3.29 ± 0.27 |
| EAFQIVLSHLLGDAGSPYLIGLIS [SPNS1] | – | – | 3.11 ± 0.37 | 2.98 ± 0.41 |
| IIELLGSIPRHFALSGKYSREFFN [SRPK2] | – | – | 2.75 ± 0.54 | 2.56 ± 0.39 |
| VYNAARDGKLQLLQKLLSGRSREE [FEM1A] | – | – | 2.77 ± 0.15 | 2.79 ± 0.27 |
| RDPQAVKERALSAPWLSLFPPEGN [ZNF263] | – | – | 3.06 ± 0.27 | 3.14 ± 0.33 |
| DMVEFLLEQCSASIEVGGSVNFDG [FEM1C] | – | – | 2.17 ± 0.76 | 2.4 ± 0.24 |
| SKTFLCIGSSVMAASLVTMGIVNL [SLC2A12] | – | – | 3.19 ± 0.72 | 3.3 ± 0.54 |
| TVASMMHRQETVECLKKFNARRKL [CAMK2B] | – | – | 3.41 ± 0.4 | 3.74 ± 0.33 |
| EDPSFWDCFCFTEEIPIRNGTKS [AASDHPPT] | 3.92 ± 0.12 | 4.22 ± 0.22 | – | – |
| GEFPSPVSISIISSTSGGSGYGFR [KRT71] | – | – | 2.65 ± 0.34 | 3.04 ± 0.64 |
| PQGSRSPYIPPHAALCLEVTLKTA [FKBP8] | – | – | 2.26 ± 0.33 | 2.1 ± 0.22 |
| RHCDDDGRTENGALAPKQELPSAL [ZNF24] | – | – | 5.25 ± 0.22 | 5.15 ± 0.21 |
| KSMGLKKKAFVWARNIGFKVNSKK [ACSBG2] | – | – | 2.91 ± 0.3 | 2.83 ± 0.37 |
| ALHSLTQAGDYSMRVDLRAGDEAV [TNXB] | – | – | 3.39 ± 0.57 | 3.6 ± 0.49 |

| Sequence | protein stability index [1] | protein stability index [2] | protein stability index [3] | protein stability index [4] |
| --- | --- | --- | --- | --- |
| TSKNSSTQDPSQPNSTKNQSLPKA [LCOR] | – | – | 5.31 ± 0.16 | 5.44 ± 0.12 |
| SFVESANSEVYLPNINKISMQAVL [RHOBTB1] | – | – | 2.43 ± 0.21 | 2.2 ± 0.34 |
| PKGEPGSKQSPPMASSPIQPRKGG [FBF1] | – | – | 5.33 ± 0.1 | 5.38 ± 0.091 |
| RQWPTKSQTDRGASAGKRRCFWLG [SDE2] | – | – | 2.9 ± 0.24 | 3.19 ± 0.58 |
| DAGGIPRTAQSEETRVWHRRDGKW [CAMK2A] | – | – | 4.92 ± 0.13 | 4.86 ± 0.1 |
| LCKEMVPLAEQTPLTLQSQPKEPQ [ZSCAN9] | – | – | 5 ± 0.13 | 5.04 ± 0.24 |
| SPQPLASSPGPWGLEALAGGDLMP [FCHO1] | – | – | 4.05 ± 0.093 | 4 ± 0.27 |
| AEAGHVDICHMLVQFCRLGSPRSR [EHMT1] | – | – | 2.3 ± 0.17 | 2.37 ± 0.34 |
| DSQDLVASFRVTTGTSNTTAIKSI [RBBP5] | – | – | 3.46 ± 0.24 | 3.59 ± 0.26 |
| AEISARTMQSMFAKNFHVKAVMKT [PTPRD] | – | – | 2.56 ± 0.32 | 2.67 ± 0.39 |
| LHDCAESGSLEILQLLLGCKARME [FEM1A] | – | – | 2.41 ± 0.31 | 2.52 ± 0.29 |
| MSQTVQRMLVAASWACAFTNALTH [OR3A1] | – | – | 3.3 ± 0.22 | 3.31 ± 0.23 |
| YKVNTPMLQSFINYCLLFLIYTVM [SLC35F2] | – | – | 2.35 ± 0.8 | 2.44 ± 0.38 |
| TLVNFHLKRSIPQVSPVRRAPSRR [CPN1] | – | – | 2.88 ± 0.28 | 3.13 ± 0.23 |
| GGRPGGRGAPAVQQNIPSTLLQDH [WAS] | – | – | 4.81 ± 0.13 | 4.77 ± 0.23 |
| LKTQSLEGKRKAFYTCASHVTVVI [OR4A15] | – | – | 2.91 ± 0.35 | 3.24 ± 0.46 |
| AHQQKKHSGFEDELSEVLENQSSQ [CHGA] | – | – | 5.28 ± 0.26 | 5.25 ± 0.34 |
| SETGSTGALETRSLKDHKVSFLRS [C2CD2L] | – | – | 4.48 ± 0.29 | 4.46 ± 0.19 |
| NSRVDDTFWASWRAFAQIGPARSG [MIR22HG] | – | – | 2.6 ± 0.32 | 2.79 ± 0.35 |
| CRGHTLERSVFSERTEESSAVQYF [CARM1] | – | – | 2.81 ± 0.34 | 2.92 ± 0.5 |
